Assay [1] concerns the target wild type mouse IL-17RB-SEFIR (WT-RB-SEFIR) (mouse) (UniProt Q9JIP3). The assay is described as follows: SPR; printed as Ka. In general terms: SPR reads the build-up and loss of mass on a sensor chip optically.
Assay [2] has as its target crystallized mutant mouse IL-17RB-SEFIR (RB-SEFIR-M; K364A, K367A, K368A and K369A quadruple mutant, residues 325-486) (mouse) (UniProt Q9JIP3). The assay is described as follows: SPR; printed as Ka.

recombinant mouse Act1 SEFIR domain (mAct1-SEFIR, residues 391 to 537), sequence (Q8N7N6 391-537): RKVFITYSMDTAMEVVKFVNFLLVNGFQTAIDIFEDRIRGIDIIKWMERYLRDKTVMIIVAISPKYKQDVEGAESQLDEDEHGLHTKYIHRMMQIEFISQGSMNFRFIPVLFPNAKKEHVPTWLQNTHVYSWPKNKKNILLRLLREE
crystallized mutant mouse IL-17RB-SEFIR (RB-SEFIR-M; K364A, K367A, K368A and K369A quadruple mutant, residues 325-486) (mouse), sequence (Q9JIP3 325-486 K364A/K367A/K368A/K369A): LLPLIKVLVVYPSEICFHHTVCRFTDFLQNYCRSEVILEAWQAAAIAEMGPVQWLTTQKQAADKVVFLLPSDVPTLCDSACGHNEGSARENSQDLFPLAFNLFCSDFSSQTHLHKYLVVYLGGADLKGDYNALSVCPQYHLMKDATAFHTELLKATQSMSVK
wild type mouse IL-17RB-SEFIR (WT-RB-SEFIR) (mouse), sequence (Q9JIP3 314-486): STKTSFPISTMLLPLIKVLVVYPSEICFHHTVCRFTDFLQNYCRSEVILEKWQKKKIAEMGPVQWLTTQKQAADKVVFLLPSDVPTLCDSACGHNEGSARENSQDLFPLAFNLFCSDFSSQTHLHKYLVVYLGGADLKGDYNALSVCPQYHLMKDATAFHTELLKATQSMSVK

One may read the Kd as the concentration at which binding is half-saturated. High values mean weaker binding, low ones tighter binding. In the case of “recombinant mouse Act1 SEFIR domain (mAct1-SEFIR, residues 391 to 537) (from UniProt Q8N7N6 391-537)”, the Kd in assay [1] is 1400 nM; in assay [2] it was 1500 nM.

The values above are taken from US20150158912A1.
